Reference: publication PMC4338372 (FEBS Open Bio, 2015)

B1: GST-fused SH3 domain of Hck (GST-SH3Hck) (domain or fragment)
chain: not shown

Assays:
[1] = molecular target: ^15N-labeled SH3 domain of Hck (SH3Hck), GST tag cleaved (UniProt P08631 77-141, uniformly ^15N labeled); experiment: NMR titration
[2] = molecular target: 6His-tagged ELMO1 C-terminal domain with the polyproline motif (ELMO_(532–727)) (mouse, UniProt Q8BPU7 532-727); experiment: ELISA

Sequence of ^15N-labeled SH3 domain of Hck (SH3Hck), GST tag cleaved (P08631 77-141): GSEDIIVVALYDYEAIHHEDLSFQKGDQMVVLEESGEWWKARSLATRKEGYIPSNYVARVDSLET

Binder	Kd [1]	Kd [2]
DLENIQIPDAPPPIPKEPSNYDFVYDCN [ELMO_(700–727) peptide (28 C-terminal amino-acids of ELMO1)]	1600 ± 300 µM	–
B1	–	~10 µM
